In IntAct's records for PubMed 31515488:

B1: 2'-5'-oligoadenylate synthase 2 (Homo sapiens), P29728 (parent)
chain: MGNGESQLSSVPAQKLGWFIQEYLKPYEECQTLIDEMVNTICDVLQEPEQFPLVQGVAIGGSYGRKTVLRGNSDGTLVLFFSDLKQFQDQKRSQRDILDKTGDKLKFCLFTKWLKNNFEIQKSLDGFTIQVFTKNQRISFEVLAAFNALSLNDNPSPWIYRELKRSLDKTNASPGEFAVCFTELQQKFFDNRPGKLKDLILLIKHWHQQCQKKIKDLPSLSPYALELLTVYAWEQGCRKDNFDIAEGVRTVLELIKCQEKLCIYWMVNYNFEDETIRNILLHQLQSARPVILDPVDPTNNVSGDKICWQWLKKEAQTWLTSPNLDNELPAPSWNVLPAPLFTTPGHLLDKFIKEFLQPNKCFLEQIDSAVNIIRTFLKENCFRQSTAKIQIVRGGSTAKGTALKTGSDADLVVFHNSLKSYTSQKNERHKIVKEIHEQLKAFWREKEEELEVSFEPPKWKAPRVLSFSLKSKVLNESVSFDVLPAFNALGQLSSGSTPSPEVYAGLIDLYKSSDLPGGEFSTCFTVLQRNFIRSRPTKLKDLIRLVKHWYKECERKLKPKGSLPPKYALELLTIYAWEQGSGVPDFDTAEGFRTVLELVTQYQQLCIFWKVNYNFEDETVRKFLLSQLQKTRPVILDPAEPTGDVGGGDRWCWHLLAKEAKEWLSSPCFKDGTGNPIPPWKVPTMQTPGSCGARIHPIVNEMFSSRSHRILNNNSKRNF
B2: 14-3-3 protein theta (Homo sapiens), P27348 (parent)
chain: MEKTELIQKAKLAEQAERYDDMATCMKAVTEQGAELSNEERNLLSVAYKNVVGGRRSAWRVISSIEQKTDTSDKKLQLIKDYREKVESELRSICTTVLELLDKYLIANATNPESKVFYLKMKGDYFRYLAEVACGDDRKQTIDNSQGAYQEAFDISKKEMQPTHPIRLGLALNFSVFYYEILNNPELACTLAKTAFDEAIAELDTLNEDSYKDSTLIMQLLRDNLTLWTSDSAGEECDAAEGAEN
B3: Notch homolog 2 N-terminal-like protein A (Homo sapiens), Q7Z3S9 (parent)
chain: MCVTYHNGTGYCKCPEGFLGEYCQHRDPCEKNRCQNGGTCVAQAMLGKATCRCASGFTGEDCQYSTSHPCFVSRPCLNGGTCHMLSRDTYECTCQVGFTGKECQWTDACLSHPCANGSTCTTVANQFSCKCLTGFTGQKCETDVNECDIPGHCQHGGTCLNLPGSYQCQCLQGFTGQYCDSLYVPCAPSPCVNGGTCRQTGDFTFECNCLPETVRRGTELWERDREVWNGKEHDEN
partner: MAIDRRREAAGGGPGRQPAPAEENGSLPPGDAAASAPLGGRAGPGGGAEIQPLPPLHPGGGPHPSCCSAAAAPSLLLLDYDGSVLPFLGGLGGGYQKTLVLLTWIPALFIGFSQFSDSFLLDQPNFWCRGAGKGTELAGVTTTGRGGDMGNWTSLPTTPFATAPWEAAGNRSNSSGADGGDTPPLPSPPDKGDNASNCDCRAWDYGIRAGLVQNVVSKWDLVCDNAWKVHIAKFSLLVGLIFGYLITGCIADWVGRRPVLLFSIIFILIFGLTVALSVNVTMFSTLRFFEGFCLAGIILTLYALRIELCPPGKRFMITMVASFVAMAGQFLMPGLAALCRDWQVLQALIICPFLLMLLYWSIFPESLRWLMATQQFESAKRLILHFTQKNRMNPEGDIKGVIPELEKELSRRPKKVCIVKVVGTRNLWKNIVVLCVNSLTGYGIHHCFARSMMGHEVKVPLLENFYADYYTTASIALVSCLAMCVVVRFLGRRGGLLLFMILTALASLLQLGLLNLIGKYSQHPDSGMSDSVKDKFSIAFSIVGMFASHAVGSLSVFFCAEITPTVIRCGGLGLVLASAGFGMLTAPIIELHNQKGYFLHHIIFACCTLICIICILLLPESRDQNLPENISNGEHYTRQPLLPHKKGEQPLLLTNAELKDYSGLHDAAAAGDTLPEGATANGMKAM
B4: Notch homolog 2 N-terminal-like protein A (Homo sapiens), Q7Z3S9 (parent)
chain: B3 chain
partner: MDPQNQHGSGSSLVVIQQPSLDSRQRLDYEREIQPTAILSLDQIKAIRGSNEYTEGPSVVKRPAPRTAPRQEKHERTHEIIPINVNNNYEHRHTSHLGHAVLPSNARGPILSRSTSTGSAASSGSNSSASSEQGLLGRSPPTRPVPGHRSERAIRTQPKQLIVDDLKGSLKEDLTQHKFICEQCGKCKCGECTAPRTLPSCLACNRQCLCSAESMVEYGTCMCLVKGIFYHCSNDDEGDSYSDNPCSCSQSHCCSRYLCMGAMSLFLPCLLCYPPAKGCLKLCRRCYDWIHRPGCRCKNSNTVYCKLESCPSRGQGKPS
B5: Cyclin-D1-binding protein 1 (Homo sapiens), O95273 (parent)
chain: MASATAPAAAVPTLASPLEQLRHLAEELRLLLPRVRVGEAQETTEEFNREMFWRRLNEAAVTVSREATTLTIVFSQLPLPSPQETQKFCEQVHAAIKAFIAVYYLLPKDQGITLRKLVRGATLDIVDGMAQLMEVLSVTPTQSPENNDLISYNSVWVACQQMPQIPRDNKAAALLMLTKNVDFVKDAHEEMEQAVEECDPYSGLLNDTEENNSDNHNHEDDVLGFPSNQDLYWSEDDQELIIPCLALVRASKACLKKIRMLVAENGKKDQVAQLDDIVDISDEISPSVDDLALSIYPPMCHLTVRINSAKLVSVLKKALEITKASHVTPQPEDSWIPLLINAIDHCMNRIKELTQSELEL
partner: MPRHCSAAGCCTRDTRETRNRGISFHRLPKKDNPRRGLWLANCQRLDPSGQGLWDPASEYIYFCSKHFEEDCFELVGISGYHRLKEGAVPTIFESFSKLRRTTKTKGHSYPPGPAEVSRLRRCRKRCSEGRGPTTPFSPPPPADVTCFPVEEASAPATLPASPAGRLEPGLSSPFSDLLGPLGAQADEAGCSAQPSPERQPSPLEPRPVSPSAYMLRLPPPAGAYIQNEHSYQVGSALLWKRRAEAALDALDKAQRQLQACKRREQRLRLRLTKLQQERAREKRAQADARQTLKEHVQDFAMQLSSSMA
B6: Ribosome quality control complex subunit TCF25 (Homo sapiens), Q9BQ70 (parent)
chain: MSRRALRRLRGEQRGQEPLGPGALHFDLRDDDDAEEEGPKRELGVRRPGGAGKEGVRVNNRFELINIDDLEDDPVVNGERSGCALTDAVAPGNKGRGQRGNTESKTDGDDTETVPSEQSHASGKLRKKKKKQKNKKSSTGEASENGLEDIDRILERIEDSTGLNRPGPAPLSSRKHVLYVEHRHLNPDTELKRYFGARAILGEQRPRQRQRVYPKCTWLTTPKSTWPRYSKPGLSMRLLESKKGLSFFAFEHSEEYQQAQHKFLVAVESMEPNNIVVLLQTSPYHVDSLLQLSDACRFQEDQEMARDLVERALYSMECAFHPLFSLTSGACRLDYRRPENRSFYLALYKQMSFLEKRGCPRTALEYCKLILSLEPDEDPLCMLLLIDHLALRARNYEYLIRLFQEWEAHRNLSQLPNFAFSVPLAYFLLSQQTDLPECEQSSARQKASLLIQQALTMFPGVLLPLLESCSVRPDASVSSHRFFGPNAEISQPPALSQLVNLYLGRSHFLWKEPATMSWLEENVHEVLQAVDAGDPAVEACENRRKVLYQRAPRNIHRHVILSEIKEAVAALPPDVTTQSVMGFDPLPPSDTIYSYVRPERLSPISHGNTIALFFRSLLPNYTMEGERPEEGVAGGLNRNQGLNRLMLAVRDMMANFHLNDLEAPHEDDAEGEGEWD
partner: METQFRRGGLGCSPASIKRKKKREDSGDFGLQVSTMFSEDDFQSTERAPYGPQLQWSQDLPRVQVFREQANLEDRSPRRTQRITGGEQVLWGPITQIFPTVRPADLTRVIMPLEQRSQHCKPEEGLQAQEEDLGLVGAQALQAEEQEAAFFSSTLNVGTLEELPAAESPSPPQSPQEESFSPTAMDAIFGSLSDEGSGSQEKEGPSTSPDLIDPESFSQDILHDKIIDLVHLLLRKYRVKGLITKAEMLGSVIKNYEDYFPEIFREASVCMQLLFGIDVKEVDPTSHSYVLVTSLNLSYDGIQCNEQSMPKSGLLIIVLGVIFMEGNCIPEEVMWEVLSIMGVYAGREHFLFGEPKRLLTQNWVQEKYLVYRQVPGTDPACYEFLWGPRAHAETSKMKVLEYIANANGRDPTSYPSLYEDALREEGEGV
B7: Leucine rich adaptor protein 1 (Homo sapiens), Q96LR2 (parent)
chain: MEGTVESQTPDLRDVEGKVGRKTPEGLLRGLRGECELGTSGALLLPGASSTGHDLGDKIMALKMELAYLRAIDVKILQQLVTLNEGIEAVRWLLEERGTLTSHCSSLTSSQYSLTGGSPGRSRRGSWDSLPDTSTTDRLDSVSIGSFLDTVAPSELDEQGPPGAPRSEMDWAKVIAGGERARTEVDVAATRLGSLRAVWKPPGERLQGGPPESPEDESAKLGFEAHWFWEQCQDDVTFL
partner: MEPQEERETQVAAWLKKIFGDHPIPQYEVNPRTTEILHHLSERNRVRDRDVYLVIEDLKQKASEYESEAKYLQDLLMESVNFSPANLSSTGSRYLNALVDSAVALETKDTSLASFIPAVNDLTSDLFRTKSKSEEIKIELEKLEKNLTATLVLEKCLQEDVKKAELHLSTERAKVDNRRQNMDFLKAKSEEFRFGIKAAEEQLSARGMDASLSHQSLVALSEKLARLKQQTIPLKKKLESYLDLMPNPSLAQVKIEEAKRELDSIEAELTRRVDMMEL
B8: Protein FAM9B (Homo sapiens), Q8IZU0 (parent)
chain: MAAWGKKHAGKDPVRDECEERNRFTETREEDVTDEHGEREPFAETDEHTGANTKKPEDTAEDLTAKRKRMKMDKTCSKTKNKSKHALRKKQLKRQKRDYIHSLKLLNVLEEYITDEQKEEEEEEGEEEELIRIFQEQQKKWQQYRSVRRERLKEMKLLRDQFVKALEDFEDLCDRVFSDEDSELDN
partner: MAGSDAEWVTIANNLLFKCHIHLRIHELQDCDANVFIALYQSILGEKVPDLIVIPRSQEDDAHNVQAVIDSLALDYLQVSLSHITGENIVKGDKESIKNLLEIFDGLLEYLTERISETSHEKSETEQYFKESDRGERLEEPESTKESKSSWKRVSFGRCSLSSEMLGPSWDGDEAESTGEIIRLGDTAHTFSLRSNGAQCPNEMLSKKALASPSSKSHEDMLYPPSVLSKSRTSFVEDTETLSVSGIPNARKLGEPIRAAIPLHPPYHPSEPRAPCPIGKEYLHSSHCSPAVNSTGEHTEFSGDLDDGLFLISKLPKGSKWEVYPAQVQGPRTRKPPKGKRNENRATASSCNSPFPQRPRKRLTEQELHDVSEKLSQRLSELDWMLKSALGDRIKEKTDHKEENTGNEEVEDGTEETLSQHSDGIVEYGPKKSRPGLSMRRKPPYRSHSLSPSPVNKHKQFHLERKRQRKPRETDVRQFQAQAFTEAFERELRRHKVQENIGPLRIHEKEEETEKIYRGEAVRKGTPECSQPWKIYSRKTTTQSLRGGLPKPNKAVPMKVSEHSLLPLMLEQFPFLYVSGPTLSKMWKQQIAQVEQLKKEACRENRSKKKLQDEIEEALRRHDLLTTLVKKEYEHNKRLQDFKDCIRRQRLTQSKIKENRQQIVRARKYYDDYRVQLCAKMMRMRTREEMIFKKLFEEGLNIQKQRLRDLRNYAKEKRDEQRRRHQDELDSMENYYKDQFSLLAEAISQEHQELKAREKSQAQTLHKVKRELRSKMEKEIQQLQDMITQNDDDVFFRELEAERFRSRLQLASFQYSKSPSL

Variants of: B1
Settings: with clk3_human CLK3, P49761
clk3_human CLK3, P49761, sequence (P49761 whole entry, looked up): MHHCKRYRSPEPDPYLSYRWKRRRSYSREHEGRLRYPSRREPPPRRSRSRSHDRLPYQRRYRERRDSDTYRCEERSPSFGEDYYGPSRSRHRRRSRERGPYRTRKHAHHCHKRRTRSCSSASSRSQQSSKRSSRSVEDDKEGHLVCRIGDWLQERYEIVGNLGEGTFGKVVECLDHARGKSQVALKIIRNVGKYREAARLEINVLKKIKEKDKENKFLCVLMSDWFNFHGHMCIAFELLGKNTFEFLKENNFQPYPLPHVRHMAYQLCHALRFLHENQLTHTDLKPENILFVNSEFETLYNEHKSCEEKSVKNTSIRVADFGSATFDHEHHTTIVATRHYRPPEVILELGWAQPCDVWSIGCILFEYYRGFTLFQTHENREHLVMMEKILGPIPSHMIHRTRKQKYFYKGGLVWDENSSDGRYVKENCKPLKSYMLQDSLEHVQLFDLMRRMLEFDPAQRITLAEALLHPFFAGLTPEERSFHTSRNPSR

effect of a mutation on the interaction | Variant
with no effect | V620M

Variants of: B2
Settings: with tri42_human TRIM42, Q8IWZ5
tri42_human TRIM42, Q8IWZ5, sequence (Q8IWZ5 whole entry): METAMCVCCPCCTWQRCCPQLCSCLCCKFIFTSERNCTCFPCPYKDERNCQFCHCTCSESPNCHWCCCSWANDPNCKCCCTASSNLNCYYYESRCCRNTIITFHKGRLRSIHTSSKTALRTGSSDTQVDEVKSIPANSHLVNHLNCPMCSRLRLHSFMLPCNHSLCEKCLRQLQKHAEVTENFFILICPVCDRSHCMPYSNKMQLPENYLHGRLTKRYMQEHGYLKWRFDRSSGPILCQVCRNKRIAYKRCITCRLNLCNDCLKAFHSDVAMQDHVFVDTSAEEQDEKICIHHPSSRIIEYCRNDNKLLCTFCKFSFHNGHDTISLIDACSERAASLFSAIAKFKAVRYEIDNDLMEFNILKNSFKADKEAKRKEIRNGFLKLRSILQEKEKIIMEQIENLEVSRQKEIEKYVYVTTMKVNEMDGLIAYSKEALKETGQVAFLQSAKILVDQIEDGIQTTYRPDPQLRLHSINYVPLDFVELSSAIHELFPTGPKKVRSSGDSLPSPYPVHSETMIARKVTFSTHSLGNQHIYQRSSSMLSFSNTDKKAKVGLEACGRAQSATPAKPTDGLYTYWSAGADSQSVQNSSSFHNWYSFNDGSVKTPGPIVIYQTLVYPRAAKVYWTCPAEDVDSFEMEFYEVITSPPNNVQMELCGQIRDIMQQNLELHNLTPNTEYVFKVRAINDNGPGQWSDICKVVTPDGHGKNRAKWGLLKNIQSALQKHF

effect of a mutation on the interaction | Variant
with no effect | A152S

Variants of: B3
Settings: with SLC22A23, A1A5C7

effect of a mutation on the interaction | Variant
with no effect | R74Q
with no effect | A115T

Variants of: B4
Settings: with spy1_human SPRY1, O43609

effect of a mutation on the interaction | Variant
with no effect | R74Q
with no effect | A115T

Variants of: B5
Settings: with thap7_human THAP7, Q9BT49

effect of a mutation on the interaction | Variant
disrupting interaction strength | I277T

Variants of: B6
Settings: with magab_human MAGEA11, P43364

effect of a mutation on the interaction | Variant
with no effect | V526A

Variants of: B7
Settings: with haus1_human HAUS1, Q96CS2

effect of a mutation on the interaction | Variant
with no effect | M60L
with no effect | Q207R

Variants of: B8
Settings: with cep95_human CEP95, Q96GE4

effect of a mutation on the interaction | Variant
with no effect | R23H
